Reference: paper PMC9482650, “Quantitative fragmentomics allow affinity mapping of interactomes” (Nature Communications, 2022)

T1: APBA1_2, Q02410
T1 sequence (Q02410 742-832, limits assumed, looked up): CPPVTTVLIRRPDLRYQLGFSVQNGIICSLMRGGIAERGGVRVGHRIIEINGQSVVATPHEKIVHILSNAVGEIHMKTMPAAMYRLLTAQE

T2: APBA1_1, Q02410
T2 sequence (Q02410 651-752, limits assumed, looked up): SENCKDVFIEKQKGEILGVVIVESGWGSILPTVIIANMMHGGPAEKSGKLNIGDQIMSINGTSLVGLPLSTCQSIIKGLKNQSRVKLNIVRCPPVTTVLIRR

T3: LNX2_3, Q8N448
T3 sequence (Q8N448 463-564, limits assumed, looked up): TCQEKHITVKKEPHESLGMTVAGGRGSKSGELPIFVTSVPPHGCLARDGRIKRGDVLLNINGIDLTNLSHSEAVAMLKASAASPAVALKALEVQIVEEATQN

T4: APBA2_1, Q99767
T4 sequence (Q99767 563-664, limits assumed, looked up): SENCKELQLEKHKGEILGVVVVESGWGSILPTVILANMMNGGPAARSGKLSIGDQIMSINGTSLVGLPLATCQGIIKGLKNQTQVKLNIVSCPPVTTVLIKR

T5: GRIP1_4, Q9Y3R0
T5 sequence (Q9Y3R0 467-571, limits assumed, looked up): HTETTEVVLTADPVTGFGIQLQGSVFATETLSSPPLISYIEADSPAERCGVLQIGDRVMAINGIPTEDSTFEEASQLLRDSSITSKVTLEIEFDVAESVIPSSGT

T6: LIN7C, Q9NUP9
T6 sequence (Q9NUP9 88-185, limits assumed, looked up): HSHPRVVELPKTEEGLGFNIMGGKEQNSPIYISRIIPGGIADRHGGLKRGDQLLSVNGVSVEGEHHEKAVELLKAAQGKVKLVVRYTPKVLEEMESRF

T7: SNTA1, Q13424
T7 sequence (Q13424 82-180, limits assumed, looked up): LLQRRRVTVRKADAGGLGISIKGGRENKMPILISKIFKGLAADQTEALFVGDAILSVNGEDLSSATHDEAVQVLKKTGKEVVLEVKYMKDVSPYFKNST

T8: MPDZ_10, O75970
T8 sequence (O75970 1624-1722, limits assumed, looked up): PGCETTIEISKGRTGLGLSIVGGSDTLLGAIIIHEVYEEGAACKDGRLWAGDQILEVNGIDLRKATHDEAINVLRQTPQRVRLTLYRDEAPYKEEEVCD

T9: HTRA3, P83110
T9 sequence (P83110 354-453, limits assumed, looked up): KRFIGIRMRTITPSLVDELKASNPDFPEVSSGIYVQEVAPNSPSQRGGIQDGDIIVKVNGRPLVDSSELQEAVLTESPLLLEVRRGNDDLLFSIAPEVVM

T10: LNX2_2, Q8N448
T10 sequence (Q8N448 334-432, limits assumed, looked up): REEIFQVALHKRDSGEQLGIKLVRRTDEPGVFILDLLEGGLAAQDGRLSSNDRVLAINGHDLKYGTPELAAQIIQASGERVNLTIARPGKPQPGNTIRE

T11: NHERF3_3, Q5T2W1
T11 sequence (Q5T2W1 238-333, limits assumed, looked up): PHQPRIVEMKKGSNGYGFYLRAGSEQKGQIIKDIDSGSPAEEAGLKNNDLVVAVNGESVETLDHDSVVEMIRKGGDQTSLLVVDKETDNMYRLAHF

T12: DVL3, Q92997
T12 sequence (Q92997 244-331, limits assumed, looked up): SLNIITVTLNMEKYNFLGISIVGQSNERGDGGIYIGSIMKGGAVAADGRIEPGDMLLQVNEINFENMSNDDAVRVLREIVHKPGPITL

T13: APBA2_2, Q99767
T13 sequence (Q99767 654-744, limits assumed, looked up): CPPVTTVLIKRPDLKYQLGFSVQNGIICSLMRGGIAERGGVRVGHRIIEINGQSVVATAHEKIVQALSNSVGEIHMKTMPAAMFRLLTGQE


Key:
Experiment in all cases: holdup assay
Design in all cases: key: below the threshold = too weak to quantify, mostly under pKd 3.1 to 4
Conditions in all cases: plain residues with an end cap or a label only (N-terminal biotin on a linker: ado-ado)
[1] = target: LNX1_3, Q8TBB1
LNX1_3, Q8TBB1, sequence (Q8TBB1 500-596): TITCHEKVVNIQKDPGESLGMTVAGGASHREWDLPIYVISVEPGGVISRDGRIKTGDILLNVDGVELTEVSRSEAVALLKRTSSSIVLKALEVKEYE

[2] = target: T1, APBA1_2, Q02410
[3] = target: T2, APBA1_1, Q02410
[4] = target: PDLIM1, O00151
PDLIM1, O00151, sequence (O00151 1-87): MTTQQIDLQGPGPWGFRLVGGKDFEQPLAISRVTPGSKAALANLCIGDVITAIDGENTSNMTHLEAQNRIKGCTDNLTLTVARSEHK

[5] = target: GRID2IP_1, A4D2P6
GRID2IP_1, A4D2P6, sequence (A4D2P6 1-87): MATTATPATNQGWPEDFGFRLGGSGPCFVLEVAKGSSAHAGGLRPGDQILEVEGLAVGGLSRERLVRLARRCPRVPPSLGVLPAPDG

[6] = target: NHERF4_4, Q86UT5
NHERF4_4, Q86UT5, sequence (Q86UT5 464-550): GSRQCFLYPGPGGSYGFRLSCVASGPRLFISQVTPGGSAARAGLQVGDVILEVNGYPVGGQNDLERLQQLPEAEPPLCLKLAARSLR

[7] = target: T3, LNX2_3, Q8N448
[8] = target: LNX1_2, Q8TBB1
LNX1_2, Q8TBB1, sequence (Q8TBB1 371-470): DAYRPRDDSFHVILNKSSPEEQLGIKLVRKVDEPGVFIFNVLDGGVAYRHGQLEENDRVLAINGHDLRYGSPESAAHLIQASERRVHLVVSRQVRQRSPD

[9] = target: T4, APBA2_1, Q99767
[10] = target: NHERF4_2, Q86UT5
NHERF4_2, Q86UT5, sequence (Q86UT5 220-308): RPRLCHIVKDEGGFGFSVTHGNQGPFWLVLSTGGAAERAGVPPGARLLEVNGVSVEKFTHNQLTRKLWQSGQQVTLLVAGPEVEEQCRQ

[11] = target: GRIP2_4, Q9C0E4
GRIP2_4, Q9C0E4, sequence (Q9C0E4 446-548): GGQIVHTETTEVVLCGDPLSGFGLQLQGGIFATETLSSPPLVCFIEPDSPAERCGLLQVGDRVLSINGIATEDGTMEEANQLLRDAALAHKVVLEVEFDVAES

[12] = target: T5, GRIP1_4, Q9Y3R0
[13] = target: FRMPD2_3, Q68DX3
FRMPD2_3, Q68DX3, sequence (Q68DX3 1073-1166): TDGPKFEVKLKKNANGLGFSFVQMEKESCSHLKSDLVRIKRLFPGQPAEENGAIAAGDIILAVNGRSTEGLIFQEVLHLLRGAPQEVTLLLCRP

[14] = target: T6, LIN7C, Q9NUP9
[15] = target: T7, SNTA1, Q13424
[16] = target: T8, MPDZ_10, O75970
[17] = target: T9, HTRA3, P83110
[18] = target: SCRIB_1, Q14160
SCRIB_1, Q14160, sequence (Q14160 718-814): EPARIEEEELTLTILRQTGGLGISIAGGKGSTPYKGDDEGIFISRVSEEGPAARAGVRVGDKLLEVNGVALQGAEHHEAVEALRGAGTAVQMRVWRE

[19] = target: DLG4_1, P78352
DLG4_1, P78352, sequence (P78352 62-152): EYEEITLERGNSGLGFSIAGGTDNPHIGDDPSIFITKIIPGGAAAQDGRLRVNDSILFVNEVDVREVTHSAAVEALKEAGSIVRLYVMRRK

[20] = target: T10, LNX2_2, Q8N448
[21] = target: Inadl_4, Q8NI35
Inadl_4, Q8NI35, sequence (Q8NI35 547-651): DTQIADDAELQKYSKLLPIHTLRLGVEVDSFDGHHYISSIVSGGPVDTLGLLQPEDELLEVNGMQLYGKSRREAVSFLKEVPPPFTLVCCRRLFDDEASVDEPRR

[22] = target: T11, NHERF3_3, Q5T2W1
[23] = target: T12, DVL3, Q92997
[24] = target: T13, APBA2_2, Q99767
[25] = target: MAGI2_2, Q86UL8
MAGI2_2, Q86UL8, sequence (Q86UL8 410-522): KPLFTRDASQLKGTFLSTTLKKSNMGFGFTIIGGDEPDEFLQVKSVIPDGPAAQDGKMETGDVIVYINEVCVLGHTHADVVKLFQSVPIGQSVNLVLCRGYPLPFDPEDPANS

pKd [1]	pKd [2]	pKd [3]	pKd [4]	pKd [5]	pKd [6]	pKd [7]	pKd [8]	pKd [9]	pKd [10]	pKd [11]	pKd [12]	pKd [13]	pKd [14]	pKd [15]	pKd [16]	pKd [17]	pKd [18]	pKd [19]	pKd [20]	Binder	other results
below the threshold	3.8	below the threshold	3.54	below the threshold	below the threshold	3.62	below the threshold	below the threshold	below the threshold	below the threshold	below the threshold	3.54	3.56	4.25	below the threshold	below the threshold	4.15	3.99	below the threshold	PDSNPEESSV [SEMA4C, Q9C0C4]	pKd [21]: 3.48; pKd [22]: below the threshold; pKd [23]: below the threshold; pKd [24]: below the threshold; pKd [25]: below the threshold
below the threshold	below the threshold	below the threshold	below the threshold	below the threshold	below the threshold	below the threshold	below the threshold	below the threshold	below the threshold	below the threshold	below the threshold	below the threshold	below the threshold	below the threshold	below the threshold	below the threshold	below the threshold	below the threshold	below the threshold	FTLPAESSEI [PLEKHG7, Q6ZR37]	pKd [21]: below the threshold; pKd [22]: below the threshold; pKd [23]: below the threshold; pKd [24]: below the threshold; pKd [25]: below the threshold
below the threshold	below the threshold	below the threshold	below the threshold	below the threshold	3.99	below the threshold	below the threshold	below the threshold	below the threshold	below the threshold	below the threshold	below the threshold	3.68	4.04	below the threshold	below the threshold	4.46	3.52	below the threshold	NPETRDETQL [KCNT1, Q5JUK3]	pKd [21]: below the threshold; pKd [22]: below the threshold; pKd [23]: below the threshold; pKd [24]: below the threshold; pKd [25]: below the threshold
below the threshold	3.63	below the threshold	below the threshold	below the threshold	below the threshold	below the threshold	below the threshold	below the threshold	below the threshold	below the threshold	below the threshold	3.55	below the threshold	4.43	3.75	below the threshold	below the threshold	3.79	below the threshold	EWTDERQSKV [GAB3, Q8WWW8]	pKd [21]: below the threshold; pKd [22]: below the threshold; pKd [23]: below the threshold; pKd [24]: below the threshold; pKd [25]: below the threshold
below the threshold	4.35	below the threshold	below the threshold	below the threshold	below the threshold	below the threshold	below the threshold	below the threshold	below the threshold	below the threshold	below the threshold	below the threshold	4	below the threshold	below the threshold	3.79	below the threshold	below the threshold	3.92	ASGLDKRDYV [CLDN9, O95484]	pKd [21]: below the threshold; pKd [22]: below the threshold; pKd [23]: below the threshold; pKd [24]: below the threshold; pKd [25]: below the threshold
